As a reminder, the EC50 is the midpoint of the concentration-response curve. The low end stands for an effect from little substance, the high end for a need for much substance.

The experiment addresses T1, human CLDN18.2 on tumor cells (NUGC-4, KATO III-hCLDN18.2, DAN-G-hCLDN18.2) (human, UniProt P56856-2 1-261).
T1 construct: whole, on cells; also called Claudin18.2; DNA-G cells overexpressing Claudin18.2
The experiment is described as follows: FACS binding to NUGC-4 gastric cancer cells (MFI vs Log [Conc(nM)]).

B1: HB37A6 (antibody, human IgG1, kappa, V domains shown)
VH: EVQLLDSGGGLVQPGGSLRLSCAASGFTFSSYVMSWVRQAPGKGLNWVSTISHSGGSTYYADSVKGRFTISRDNSKNTLYLQMNSLRAEDTAVYYCAIDAPYYDILTGYRYWGQGTLVTVSS
VL: not shown
notes: Fully human; expressed in HEK293 cells as a full-length human IgG1 kappa monoclonal antibody
With B1, the EC50 was determined as 1.05 nM.
